# Non-standard residues stand in square brackets, D forms with d. No end group written: not given here. Nle = CCCC[C@H](N)C(=O)O
# B1: Norleual (Nle-Tyr-Leu-ψ-(CH2-NH2)-His-Pro-Phe) (peptide)
# peptide: [Nle]YLHPF
# modifications: not fully specified; printed as Nle-Tyr-Leu-ψ-(CH2-NH2)-His-Pro-Phe; also: reduced peptide bond ψ(CH2-NH) between Leu3 and His4
# notes: Synthesized by Syngene and purified by reverse phase HPLC; Peptidomimetic hexapeptide; also called Compound 2; COMPOUND 2
# How the values were obtained:
# [1] = target: T1, c-Met receptor on mouse liver plasma membranes (mouse, UniProt P16056 25-1379); assay: competition with 50 pM ^125I-HGF for binding to mouse liver plasma membranes; mean ±SEM, n=3
# T1 construct: whole, on cells; Membrane preparation from mouse liver
# Protocol: Mouse liver plasma membranes were incubated with […] ¹²⁵I-HGF and the indicated concentrations of HGF or Norleual. Results are presented as percent of specific ¹²⁵I-HGF binding and error bars indicate±standard error of mean (SEM). Competition experiments included quadruplicate data points and each experiment was repeated in triplicate.
# (§1) ¹²⁵I-HGF binding assay. Mouse liver was homogenized in hypotonic buffer fortified with 0.1% bovine serum albumin as described by Hanesworth et al. (1993). 600 μg of membrane protein was incubated with 50 pM ¹²⁵I-HGF with various concentrations of HGF or Norleual in a total volume of 100 μl phosphate-buffered saline (PBS) fortified with 0.1% BSA. Binding occurred for one hour on ice. Membranes were pelleted by centrifugation and washed twice with incubation buffer. Radioactivity was counted with a gamma counter (Isomedic 10/880, ICN, Cost Mesa, Calif., USA). Specific binding was calculated and normalized to control counts. Competition fits by Prism software (GraphicPad, San Diego, Calif.) were performed according to the manufacturer's instructions.
# Materials and methods were as described in Example 1. In separate tests of unlabeled competitors, both Norleual and HGF competed with ¹²⁵I-HGF for high affinity binding to mouse liver plasma membranes (FIGS. 2A, 2B). […]
# [2] = target: T1, c-Met receptor on mouse liver plasma …; assay: competition with ^125I-HGF at various concentrations of COMPOUND 2 (mouse liver membranes)
# Protocol: as §1
# Briefly, COMPOUND 2 was iodinated with […] and bound and cross-linked to HEK cell membranes with or without 1 nM COMPOUND 2 or 1 nM hepatocyte growth factor. Following solubilization and separation of free label by molecular sieving, total radioactive counts were determined. The ability of the ligand COMPOUND 2 to compete with hepatocyte growth factor binding to the c-Met receptor was also tested using mouse liver plasma membranes and intact HEK293 cells. […] Membranes were pelleted and unbound label was removed by washing, and total radioactive counts were determined. […]
# [3] = target: T2, c-Met receptor on human cells (HEK293 cells and membranes, HUVEC) (human, UniProt P08581 25-1390); assay: unlabeled Norleual against ^125I-Norleual on HEK293 membranes; two-site competition fit, low-affinity site
# T2 construct: Endogenous receptor of human embryonic kidney HEK293 cells, HEK293 membranes and HUVEC; also called hepatocyte growth factor receptor; HGF-R
# Protocol: (§2) FIG. 3C: ¹²⁵I-Norleual was bound to HEK membranes in the presence or absence of 1.5 nM HGF (n=8) or 1 μM Norleual (n=6). Total binding is reported as percent control (n=10), (*p<0.001). Error bars indicate±SD. […] Error bars indicate SD and data points were performed in duplicate.
# (§3) ¹²⁵I-Norleual binding assay. HEK293 cells were grown to confluency in DMEM fortified with 10% FBS. Media was aspirated and cells were washed twice with ice-cold PBS. Cells were lysed with hypotonic buffer and homogenized as described by Zhang et al. (1999, J. Pharmacol. Exp. Ther. 289: 1075-1083; 2003 J. Cell Biochem. 88: 408-417). 450 μg of membrane protein was incubated with 1.5 nM ¹²⁵I-Norleual with or without Norleual or HGF in a total volume of 250 μl PBS, 0.1% BSA. Tubes were spun and binding was carried out for 60 minutes at RT. Bound and free ligands were separated by vacuum filtration using (Brandel Cell Harvester, Schleicher & Schull, Keene, N.H., USA) 32 glass filters. Radioactivity retained by the filters was measured using a gamma counter. […] Data analysis was preformed using Prism software (GraphicPad) per the supplier's recommendations.
# [4] = target: T2, c-Met receptor on human cells (HEK293 …); assay: unlabeled Norleual against ^125I-Norleual on HEK293 membranes; two-site competition fit, high-affinity site
# Protocol: as §2, §3
# T2 sequence (P08581 other isoform, or with tags, fused parts or gaps limits assumed): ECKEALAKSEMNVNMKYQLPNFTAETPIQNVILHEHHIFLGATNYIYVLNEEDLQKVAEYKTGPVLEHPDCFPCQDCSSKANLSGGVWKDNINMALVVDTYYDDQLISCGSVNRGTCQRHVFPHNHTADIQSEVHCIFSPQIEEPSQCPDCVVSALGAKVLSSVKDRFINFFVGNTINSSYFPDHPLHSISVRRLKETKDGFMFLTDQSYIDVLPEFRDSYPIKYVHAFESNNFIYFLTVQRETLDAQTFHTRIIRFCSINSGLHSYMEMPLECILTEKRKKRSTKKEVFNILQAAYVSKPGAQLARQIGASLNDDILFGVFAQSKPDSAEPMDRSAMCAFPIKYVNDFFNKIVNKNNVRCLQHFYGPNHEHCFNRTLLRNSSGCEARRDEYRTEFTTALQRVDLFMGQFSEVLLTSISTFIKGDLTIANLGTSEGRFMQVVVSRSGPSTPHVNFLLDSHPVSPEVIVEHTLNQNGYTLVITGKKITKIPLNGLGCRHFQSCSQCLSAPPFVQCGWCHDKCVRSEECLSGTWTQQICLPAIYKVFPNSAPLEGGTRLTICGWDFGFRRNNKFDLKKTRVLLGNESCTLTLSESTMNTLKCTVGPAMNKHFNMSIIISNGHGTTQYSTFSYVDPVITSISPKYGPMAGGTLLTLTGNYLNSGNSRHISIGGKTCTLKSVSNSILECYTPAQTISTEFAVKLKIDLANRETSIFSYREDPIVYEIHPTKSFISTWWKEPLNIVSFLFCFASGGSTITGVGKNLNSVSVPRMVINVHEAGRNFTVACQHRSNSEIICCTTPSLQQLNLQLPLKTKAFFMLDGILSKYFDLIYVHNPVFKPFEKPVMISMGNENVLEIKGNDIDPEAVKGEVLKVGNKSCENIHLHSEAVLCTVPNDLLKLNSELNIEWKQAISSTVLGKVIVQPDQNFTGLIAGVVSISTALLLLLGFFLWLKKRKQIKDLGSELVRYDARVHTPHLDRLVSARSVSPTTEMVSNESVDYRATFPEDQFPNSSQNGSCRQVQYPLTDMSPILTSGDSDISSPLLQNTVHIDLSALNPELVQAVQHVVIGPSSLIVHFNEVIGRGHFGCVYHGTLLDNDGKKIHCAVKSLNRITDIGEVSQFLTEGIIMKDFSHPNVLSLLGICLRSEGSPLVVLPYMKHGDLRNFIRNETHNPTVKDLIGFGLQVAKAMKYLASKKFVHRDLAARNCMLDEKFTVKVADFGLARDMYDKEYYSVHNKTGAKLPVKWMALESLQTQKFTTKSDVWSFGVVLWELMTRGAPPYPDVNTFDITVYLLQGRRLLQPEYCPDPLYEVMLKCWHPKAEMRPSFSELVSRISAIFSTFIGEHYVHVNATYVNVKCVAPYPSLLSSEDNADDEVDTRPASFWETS
# T1 sequence (P16056 25-1379): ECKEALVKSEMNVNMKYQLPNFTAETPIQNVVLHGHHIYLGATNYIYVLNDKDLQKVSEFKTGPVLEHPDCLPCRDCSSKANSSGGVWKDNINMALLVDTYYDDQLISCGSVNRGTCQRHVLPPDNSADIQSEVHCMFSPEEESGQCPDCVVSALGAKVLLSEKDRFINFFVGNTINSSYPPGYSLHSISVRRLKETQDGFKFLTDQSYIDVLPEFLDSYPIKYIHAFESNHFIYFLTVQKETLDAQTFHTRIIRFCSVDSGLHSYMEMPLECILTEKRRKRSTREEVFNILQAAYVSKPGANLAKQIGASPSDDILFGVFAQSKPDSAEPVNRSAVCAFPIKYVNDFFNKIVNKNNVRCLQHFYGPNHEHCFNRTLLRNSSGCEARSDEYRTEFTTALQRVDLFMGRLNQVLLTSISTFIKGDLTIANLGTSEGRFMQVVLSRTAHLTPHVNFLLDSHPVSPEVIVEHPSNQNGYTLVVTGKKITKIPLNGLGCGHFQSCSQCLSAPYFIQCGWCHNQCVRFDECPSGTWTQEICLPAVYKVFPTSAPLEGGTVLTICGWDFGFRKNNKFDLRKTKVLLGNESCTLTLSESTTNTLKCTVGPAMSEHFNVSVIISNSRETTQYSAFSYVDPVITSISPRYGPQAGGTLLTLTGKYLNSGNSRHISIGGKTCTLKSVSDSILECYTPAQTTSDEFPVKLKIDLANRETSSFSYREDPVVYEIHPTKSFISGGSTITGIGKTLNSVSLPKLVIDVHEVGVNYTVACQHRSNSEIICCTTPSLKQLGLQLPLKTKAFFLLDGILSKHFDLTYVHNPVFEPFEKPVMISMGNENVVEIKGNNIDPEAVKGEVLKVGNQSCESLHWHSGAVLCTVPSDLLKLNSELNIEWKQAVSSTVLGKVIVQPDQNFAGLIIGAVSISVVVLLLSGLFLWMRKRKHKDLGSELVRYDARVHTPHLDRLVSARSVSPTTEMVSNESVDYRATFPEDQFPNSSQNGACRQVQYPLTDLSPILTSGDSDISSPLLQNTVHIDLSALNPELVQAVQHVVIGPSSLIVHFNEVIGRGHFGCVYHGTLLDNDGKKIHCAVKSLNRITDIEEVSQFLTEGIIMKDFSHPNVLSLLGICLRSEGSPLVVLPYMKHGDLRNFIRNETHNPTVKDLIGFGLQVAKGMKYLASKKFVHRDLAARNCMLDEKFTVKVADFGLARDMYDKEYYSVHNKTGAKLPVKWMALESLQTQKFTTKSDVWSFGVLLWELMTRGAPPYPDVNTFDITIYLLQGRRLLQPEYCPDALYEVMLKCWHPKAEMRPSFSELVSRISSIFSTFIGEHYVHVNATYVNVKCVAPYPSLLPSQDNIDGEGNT
binder,measurement,setting,value
B1,IC50,[1],0.0031 nM
same,Kd,[2],~0.003 nM
same,IC50,[3],7.4 nM
same,IC50,[4],0.048 nM

# — patent publication US20080293634A1 (WASHINGTON STATE UNIVERSITY RESEARCH FOUNDATION, published 2008)
